Assay results: paper doi:10.1101/568618 (bioRxiv, 2019)

B6: Arabidopsis COP1^349-675 WD40 domain (domain or fragment)
chain: TFTRYSRLRVIAEIRHGDIFHSANIVSSIEFDRDDELFATAGVSRCIKVFDFSSVVNEPADMQCPIVEMSTRSKLSCLSWNKHEKNHIASSDYEGIVTVWDVTTRQSLMEYEEHEKRAWSVDFSRTEPSMLVSGSDDCKVKVWCTRQEASVINIDMKANICCVKYNPGSSNYIAVGSADHHIHYYDLRNISQPLHVFSGHKKAVSYVKFLSNNELASASTDSTLRLWDVKDNLPVRTFRGHTNEKNFVGLTVNSEYLACGSETNEVYVYHKEITRPVTSHRFGSPDMDDAEEEAGSYFISAVCWKSDSPTMLTANSQGTIKVLVLAA
B7: COP1^(349-675, Lys422Ala) WD40 domain (domain or fragment)
chain: TFTRYSRLRVIAEIRHGDIFHSANIVSSIEFDRDDELFATAGVSRCIKVFDFSSVVNEPADMQCPIVEMSTRSALSCLSWNKHEKNHIASSDYEGIVTVWDVTTRQSLMEYEEHEKRAWSVDFSRTEPSMLVSGSDDCKVKVWCTRQEASVINIDMKANICCVKYNPGSSNYIAVGSADHHIHYYDLRNISQPLHVFSGHKKAVSYVKFLSNNELASASTDSTLRLWDVKDNLPVRTFRGHTNEKNFVGLTVNSEYLACGSETNEVYVYHKEITRPVTSHRFGSPDMDDAEEEAGSYFISAVCWKSDSPTMLTANSQGTIKVLVLAA
B14: recombinant light-activated full-length CRY2 (natural protein)
chain: MKMDKKTIVWFRRDLRIEDNPALAAAAHEGSVFPVFIWCPEEEGQFYPGRASRWWMKQSLAHLSQSLKALGSDLTLIKTHNTISAILDCIRVTGATKVVFNHLYDPVSLVRDHTVKEKLVERGISVQSYNGDLLYEPWEIYCEKGKPFTSFNSYWKKCLDMSIESVMLPPPWRLMPITAAAEAIWACSIEELGLENEAEKPSNALLTRAWSPGWSNADKLLNEFIEKQLIDYAKNSKKVVGNSTSLLSPYLHFGEISVRHVFQCARMKQIIWARDKNSEGEESADLFLRGIGLREYSRYICFNFPFTHEQSLLSHLRFFPWDADVDKFKAWRQGRTGYPLVDAGMRELWATGWMHNRIRVIVSSFAVKFLLLPWKWGMKYFWDTLLDADLECDILGWQYISGSIPDGHELDRLDNPALQGAKYDPEGEYIRQWLPELARLPTEWIHHPWDAPLTVLKASGVELGTNYAKPIVDIDTARELLAKAISRTREAQIMIGAAPDEIVADSFEALGANTIKEPGLCPSVSSNDQQVPSAVRYNGSKRVKPEEEEERDMKKSRGFDERELFSTAESSSSSSVFFVSQSCSLASEGKNLEGIQDSSDQITTSLGKNGCK

Columns and labels:
[1] = target: UVR8^HY5C44 chimera (recombinant) (Arabidopsis | not stated); assay: SEC
[2] = target: B6; assay: ITC
[3] = target: B7; assay: ITC
[4] = target: B6; assay: crystal structure
[5] = target: B6; assay: grating-coupled interferometry
[6] = target: B14; assay: grating-coupled interferometry
full-length UVR8 = target: T1, full-length UVR8 (Arabidopsis, UniProt Q9FN03 1-440); assay: grating-coupled interferometry
T1 sequence: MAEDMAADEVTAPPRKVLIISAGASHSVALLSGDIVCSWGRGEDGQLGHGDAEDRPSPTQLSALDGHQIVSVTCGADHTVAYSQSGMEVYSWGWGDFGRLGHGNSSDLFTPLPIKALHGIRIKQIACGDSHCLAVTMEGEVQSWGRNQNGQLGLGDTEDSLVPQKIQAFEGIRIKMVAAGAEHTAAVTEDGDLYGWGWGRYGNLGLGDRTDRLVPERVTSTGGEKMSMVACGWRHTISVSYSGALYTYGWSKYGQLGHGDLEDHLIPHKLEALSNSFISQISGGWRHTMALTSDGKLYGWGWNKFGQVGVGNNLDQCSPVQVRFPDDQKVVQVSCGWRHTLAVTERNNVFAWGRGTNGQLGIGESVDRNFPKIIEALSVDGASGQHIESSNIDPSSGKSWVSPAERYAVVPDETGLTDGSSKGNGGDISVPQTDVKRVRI

[7] = target: T2, UVR8^12-381 (UVR8 β-propeller core) (Arabidopsis, UniProt Q9FN03 12-381); assay: grating-coupled interferometry
T2 sequence: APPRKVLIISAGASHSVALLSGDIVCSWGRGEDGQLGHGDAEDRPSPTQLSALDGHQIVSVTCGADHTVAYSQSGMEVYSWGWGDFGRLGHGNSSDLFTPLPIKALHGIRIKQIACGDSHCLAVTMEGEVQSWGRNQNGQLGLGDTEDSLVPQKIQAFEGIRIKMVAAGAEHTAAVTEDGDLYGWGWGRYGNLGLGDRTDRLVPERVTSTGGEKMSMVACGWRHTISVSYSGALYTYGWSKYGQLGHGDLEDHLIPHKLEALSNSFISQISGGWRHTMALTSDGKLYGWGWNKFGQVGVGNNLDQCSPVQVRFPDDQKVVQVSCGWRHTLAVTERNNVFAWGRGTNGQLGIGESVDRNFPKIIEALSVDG

[8] = target: B7; assay: crystal structure

## UVR8^HY5C44 chimera (recombinant)
[1]
  stoichiometry N: 2

B1: CRY2^527-535 VP-peptide (peptide)
peptide: NDQQVPSAV
[2]
  binding result: binds
[3]
  fold reduced binding against wild-type COP1: ~30 fold

B2: STO^240-247 VP-peptide (peptide)
peptide: EHFIVPDL
[4]
  binding result: binds

B3: COL3^287-294 VP-peptide (peptide)
peptide: GFGVVPSF
[3]
  binding result: binds
[4]
  binding result: binds

B4: CRY2^NC80 (CRY2^486-565) (domain or fragment)
chain: SRTREAQIMIGAAPDEIVADSFEALGANTIKEPGLCPSVSSNDQQVPSAVRYNGSKRVKPEEEEERDMKKSRGFDERELF
[5]
  binding result: binds

B5: HYH^27-34 VP-peptide (peptide)
peptide: ELLMVPDM
[4]
  binding result: binds

## B6
[6]
  binding result: binds
full-length UVR8
  Kd: ~1000 nM
[7]
  Kd: ~500 nM

## B7
full-length UVR8
  binding result: binds

B8: HY5^39-48 VP-peptide (peptide)
peptide: EIRRVPEFGG
[2]
  Kd: ~20000 nM
  fold stronger binding than UVR8^406-413: ~8 fold
[8]
  binding result: binds

B9: CRY1^544-552 VP-peptide (peptide)
peptide: EDQMVPSIT
[3]
  binding result: binds
[4]
  binding result: binds

B10: full-length HY5 protein (natural protein)
chain: MQEQATSSLAASSLPSSSERSSSSAPHLEIKEGIESDEEIRRVPEFGGEAVGKETSGRESGSATGQERTQATVGESQRKRGRTPAEKENKRLKRLLRNRVSAQQARERKKAYLSELENRVKDLENKNSELEERLSTLQNENQMLRHILKNTTGNKRGGGGGSNADASL
[5]
  Kd: ~1000 nM

B11: HFR1^57-64 VP-peptide (peptide)
peptide: YLQIVPEI
[4]
  binding result: binds

B12: UVR8^406-413 VP-peptide (peptide)
peptide: RYAVVPDE
[2]
  binding result: binds
[3]
  fold increase in affinity over wild-type COP1: ~10 fold

B13: CO^366-373 VP-peptide (peptide)
peptide: GYGIVPSF
[2]
  binding result: binds
[3]
  fold stronger binding than to wild-type COP1: ~4 fold

## B14
[5]
  fold increase in affinity over the isolated CRY2 VP-peptide: ~200 fold
